Where two headings read alike, the source gives them in different places. Non-standard residues stand in square brackets, D forms with d. Primed or numbered codes have the meaning given here. No end group written: not given here. *: point of attachment. N3‑Phe = N-terminal azido-phenylalanine, [N-]=[N+]=N[C@@H](Cc1ccccc1)C(=O)*; HMB = 3-hydroxy-2-methylbenzoyl cap, Cc1c(O)cccc1C(=O)*; Phe(4-N3) = [N-]=[N+]=Nc1ccc(C[C@H](N)C(=O)O)cc1; Phe(4-CH2NH2) = NCc1ccc(C[C@H](N)C(=O)O)cc1; Phe(4-NH2) = Nc1ccc(C[C@H](N)C(=O)O)cc1; N3Phe = N-terminal azido-phenylalanine; 4Pal = N[C@@H](Cc1ccncc1)C(=O)O; VS″ = vinyl sulfone (warhead); VS = vinyl sulfone warhead; EK = epoxyketone warhead; ek = epoxyketone warhead
Key:
[1] = target: T1, caspase-like site (β1 subunit) of 26S proteasomes purified from rabbit muscle (rabbit); test: cell-based or functional assay
[2] = target: T2, chymotrypsin-like site (β5 subunit) of 26S proteasomes purified from rabbit muscle (rabbit, UniProt G1T4Q9 60-263); test: cell-based or functional assay
T2 sequence: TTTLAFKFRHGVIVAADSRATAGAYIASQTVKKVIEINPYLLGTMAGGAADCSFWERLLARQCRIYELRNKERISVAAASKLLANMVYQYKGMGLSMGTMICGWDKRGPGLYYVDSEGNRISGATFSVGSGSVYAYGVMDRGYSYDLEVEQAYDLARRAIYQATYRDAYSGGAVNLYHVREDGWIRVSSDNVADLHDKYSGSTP

[3] = target: T3, proteasome β5 subunit (chymotrypsin-like site) in human cells and cell extracts (human, UniProt P28074 60-263); test: competition with activity-based probe in living HEK-293 cells, 4 h; Chym-L site
T3 construct: mature; also called Chym-L; chymotrypsin-like sites

[4] = target: T4, trypsin-like site (β2 subunit) of 26S proteasomes purified from rabbit muscle (rabbit, UniProt G1SWK8 44-271); test: cell-based or functional assay
T4 sequence: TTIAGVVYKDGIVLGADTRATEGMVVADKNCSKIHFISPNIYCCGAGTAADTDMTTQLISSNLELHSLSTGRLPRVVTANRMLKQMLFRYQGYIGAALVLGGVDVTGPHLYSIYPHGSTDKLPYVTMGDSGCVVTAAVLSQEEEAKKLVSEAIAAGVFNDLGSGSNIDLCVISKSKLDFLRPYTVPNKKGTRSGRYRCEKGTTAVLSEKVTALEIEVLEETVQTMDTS

[5] = target: T2, chymotrypsin-like site (β5 subunit) of …; test: cell-based or functional assay; remark: listed apart in the source
[6] = target: T5, proteasome β1 subunit (caspase-like site) in human cells and cell extracts (human, UniProt P28072 35-239); test: cell-based or functional assay
T5 sequence (P28072 35-239): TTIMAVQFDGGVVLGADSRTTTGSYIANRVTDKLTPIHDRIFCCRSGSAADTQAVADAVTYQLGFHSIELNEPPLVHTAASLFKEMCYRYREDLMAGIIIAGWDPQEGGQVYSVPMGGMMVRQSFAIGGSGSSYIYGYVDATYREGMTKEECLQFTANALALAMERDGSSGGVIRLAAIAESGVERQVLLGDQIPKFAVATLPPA

[7] = target: T6, trypsin-like site (β2 subunit) of yeast 20S proteasome (S. cerevisiae, UniProt P25043 30-261); test: cell-based or functional assay
T6 sequence (looked up): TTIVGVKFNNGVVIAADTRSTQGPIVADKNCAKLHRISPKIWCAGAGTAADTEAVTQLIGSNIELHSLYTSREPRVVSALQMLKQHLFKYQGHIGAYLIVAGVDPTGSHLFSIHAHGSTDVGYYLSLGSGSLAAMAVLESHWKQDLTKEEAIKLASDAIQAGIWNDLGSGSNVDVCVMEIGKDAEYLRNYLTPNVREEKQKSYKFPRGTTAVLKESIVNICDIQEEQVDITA

[8] = target: T7, chymotrypsin-like site (β5 subunit) of yeast 20S proteasome (S. cerevisiae, UniProt P30656 76-287); test: cell-based or functional assay
T7 sequence (looked up): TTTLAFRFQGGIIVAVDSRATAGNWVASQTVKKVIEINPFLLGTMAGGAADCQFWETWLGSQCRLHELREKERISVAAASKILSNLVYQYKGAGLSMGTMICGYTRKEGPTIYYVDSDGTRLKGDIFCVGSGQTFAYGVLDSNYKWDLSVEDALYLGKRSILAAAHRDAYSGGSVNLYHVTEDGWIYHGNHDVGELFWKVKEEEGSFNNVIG

[9] = target: T6, trypsin-like site (β2 subunit) of yeast …; test: cell-based or functional assay; remark: listed apart in the source
[10] = target: T5, proteasome β1 subunit (caspase-like …); test: labelling and competition assay in HEK-293T lysate, fluorescence gel
[11] = target: T4, trypsin-like site (β2 subunit) of 26S …; test: cell-based or functional assay; remark: listed apart in the source
[12] = target: T4, trypsin-like site (β2 subunit) of 26S …; test: cell-based or functional assay; remark: listed apart in the source
[13] = target: T1, caspase-like site (β1 subunit) of 26S …; test: cell-based or functional assay; remark: listed apart in the source
[14] = target: T3, proteasome β5 subunit …; test: cell-based or functional assay

B1: N3-Phe-Leu-Leu-Phe(4-NH2)-VS (45a) (peptide)
peptide: [N3Phe]LL[Phe(4-NH2)]-{VS}
For B1, the “IC50 (µM) for sites in 26S proteasomes: Casp-L” value [1] was 23 µM and the “IC50 (µM) for sites in 26S proteasomes: Chym-L” value [2] was 0.04 µM.

B2: N3-Phe-Ala(4-pyridine)-Leu-Phe(4-CH2NH2-TFA)-VS (50) (peptide)
chain: [N3Phe][4Pal]L[Phe(4-CH2NH2)]-{VS}
modifications: also: TFA salt
B2 was tested, and the IC50 [3] was > 50 µM, the “IC50 (µM) for sites: Tr-L” value [4] was 0.012 µM and the “IC50 (µM) for sites: Chym-L” value [5] was 1.05 µM. For the same binder, the “IC50 (µM) for sites: Casp-L; NCI-H929 cells, 6 h, PROTEASOMEGLO” value [6] was > 30 µM.

B3: N3-Phe-Phe(4-CH2NH2)-Leu-Phe(4-CH2NH2)-VS (52) (peptide)
chain: [N3‑Phe][Phe(4-CH2NH2)]L[Phe(4-CH2NH2)]-{VS}
With B3 the “fold potency against yeast trypsin-like sites relative to 4a” value [7] was > 4000 fold, the “IC50 (µM) for yeast 20S proteasome: Chym-L” value [8] was 6.1 µM and the “IC50 (µM) for yeast 20S proteasome: Tr-L” value [9] was 0.00055 µM.

B4: BODIPY-triazole-Phe-Leu-Leu-Phe(4-CH2NH2)-VS TFA salt (39) (peptide)
peptide: {BODIPY‑triazole}-FLL[Phe(4-CH2NH2)]-{VS″}
modifications: also: TFA salt
notes: Fluorescent probe made from compound 4a; also called compound 39
B4: no binding [10].

B5: N3Phe-Leu-Leu-Phe(4-CH2NH2)EK TFA salt (4b) (peptide)
peptide: [Phe(4-N3)]LL[Phe(4-CH2NH2)]-{EK}
modifications: also: TFA salt
In the case of B5, the “IC50 (µM) for sites in 26S proteasomes: Tr-L” value [11] is reported as 0.25 µM and the “IC50 (µM) for sites in 26S proteasomes: Casp-L” value [1] is reported as 11 µM.

B6: NC-022 (HMB-Val-Ser-Arg-ek) (peptide)
peptide: {HMB}-Val-Ser-Arg-ek
With B6 the “IC50 (µM) for sites in 26S proteasomes: Tr-L” value [12] was 0.0038 µM, the “IC50 (µM) for sites in 26S proteasomes: Casp-L” value [13] was 16 µM and the “IC50 (µM) for sites: Casp-L; NCI-H929 cells, 6 h, PROTEASOMEGLO” value [6] was > 30 µM. For the same binder, the “IC50 (µM) for sites: Casp-L; RPMI-8226 cells, 6 h, PROTEASOMEGLO” value [6] was > 30 µM, the “IC50 (µM) for sites: Chym-L; NCI-H929 cells, 6 h, PROTEASOMEGLO” value [14] was > 30 µM and the “IC50 (µM) for sites: Chym-L; RPMI-8226 cells, 6 h, PROTEASOMEGLO” value [14] was > 30 µM.

B7: HMB-Val-Ser-Phe(4-CH2NH2)-VS (48) (peptide)
peptide: {HMB}-Val-Ser-[Phe(4-CH2NH2)]-{VS}
B7 was tested, and the “IC50 (µM) for sites in 26S proteasomes: Tr-L” value [12] was 0.25 µM, the “IC50 (µM) for sites in 26S proteasomes: Casp-L” value [13] was 11 µM and the “IC50 (µM) for sites: Casp-L; NCI-H929 cells, 6 h, PROTEASOMEGLO” value [6] was > 30 µM. For the same binder, the “IC50 (µM) for sites: Casp-L; RPMI-8226 cells, 6 h, PROTEASOMEGLO” value [6] was > 30 µM.

B8: NC-002 (Ac-Leu-Leu-Arg-ek) (peptide)
peptide: Ac-Leu-Leu-Arg-ek
For B8, the “IC50 (µM) for sites in 26S proteasomes: Tr-L” value [11] was 1 µM, the “IC50 (µM) for sites in 26S proteasomes: Casp-L” value [1] was > 30 µM and the “IC50 (µM) for sites in 26S proteasomes: Chym-L” value [2] was > 30 µM.

B9: N3-Phe-Leu-Leu-Phe(4-NH2)-EK (45b) (peptide)
peptide: [Phe(4-N3)]LL[Phe(4-NH2)]-{EK}
In the case of B9, the “IC50 (µM) for sites in 26S proteasomes: Tr-L” value [11] is reported as 1.8 µM, the “IC50 (µM) for sites in 26S proteasomes: Casp-L” value [1] is reported as > 30 µM and the “IC50 (µM) for sites in 26S proteasomes: Chym-L” value [2] is reported as 0.01 µM.

Source: patent publication US20130102527A1 (TRUSTEES OF DARTMOUTH COLLEGE, published 2013)
